The values below come from paper PMC7869511, “Computer-aided design of PVR mutants with enhanced binding affinity to TIGIT” (Cell Communication and Signaling : CCS, 2021).

Assay [1] concerns the target PVR (Homo sapiens) (UniProt P15151). The conditions noted are these: cited from earlier work.
Assay [2] shares this target. The conditions noted are these: cited from earlier work. The source holds these as a separate data set.
Another assay concerns the target nectin-2 (Homo sapiens) (UniProt Q92692). The conditions noted are these: cited from earlier work.
Assay [3] deals with T1, wild-type PVR fused with EGFP, extracted membrane protein (human), P15151.
T1 chain: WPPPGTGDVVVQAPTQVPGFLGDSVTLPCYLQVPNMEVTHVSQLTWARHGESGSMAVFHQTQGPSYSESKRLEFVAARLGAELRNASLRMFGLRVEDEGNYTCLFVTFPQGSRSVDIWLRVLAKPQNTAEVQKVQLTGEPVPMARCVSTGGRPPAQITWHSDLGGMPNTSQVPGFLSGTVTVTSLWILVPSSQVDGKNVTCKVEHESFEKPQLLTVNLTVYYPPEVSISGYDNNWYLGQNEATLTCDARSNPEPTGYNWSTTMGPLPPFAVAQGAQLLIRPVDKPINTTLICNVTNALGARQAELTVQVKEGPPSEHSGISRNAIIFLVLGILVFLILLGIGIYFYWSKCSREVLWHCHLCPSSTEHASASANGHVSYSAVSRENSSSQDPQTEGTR
Nature of the assay: MST; extracted membrane protein of PVR or PVR mutants fused with EGFP (quantified by EGFP fluorescence) as the fluorescent partner; TIGIT-His serially diluted two-fold from 25 μM to 0.000153 μM. The conditions noted are these: remark: other sources report otherwise.

The target in assay [4] is T2, PVR mutant S72R fused with EGFP, extracted membrane protein (human, UniProt P15151 21-417, S72R).
T2 construct: poliovirus receptor (PVR, CD155), human; Probably the full-length membrane protein; also called PVRS72R; source: membrane protein extracted, quantified by EGFP fluorescence
T2 sequence (looked up): T1 chain with S52R
The description is as above. The conditions noted are these: one partner purified.

Assay [5] has as its target T3, PVR mutant G131V fused with EGFP, extracted membrane protein (human, UniProt P15151 21-417, G131V).
T3 construct: poliovirus receptor (PVR, CD155), human; Probably the full-length membrane protein; also called PVRG131V; source: membrane protein extracted, quantified by EGFP fluorescence
T3 sequence (looked up): T1 chain with G111V
The description is as above. The conditions noted are these: one partner purified.

Assay [6] deals with T4, PVR mutant S72W fused with EGFP, extracted membrane protein (human, UniProt P15151 21-417, S72W).
T4 construct: poliovirus receptor (PVR, CD155), human; Probably the full-length membrane protein; also called PVRS72W; source: membrane protein extracted, quantified by EGFP fluorescence
T4 sequence (looked up): T1 chain with S52W
The description is as above. To be noted: one partner purified.

For assay [7], the target named is T5, PVR mutant S132Q fused with EGFP, extracted membrane protein (human, UniProt P15151 21-417, S132Q).
T5 construct: poliovirus receptor (PVR, CD155), human; Probably the full-length membrane protein; also called PVRS132Q; source: membrane protein extracted, quantified by EGFP fluorescence
T5 sequence (looked up): T1 chain with S112Q
The description is as above. To be noted: one partner purified.

Numbering of substitutions follows the chain as printed. Where two headings read alike, the source gives them in different places.

nectin-2 (Homo sapiens), sequence (Q92692 32-360): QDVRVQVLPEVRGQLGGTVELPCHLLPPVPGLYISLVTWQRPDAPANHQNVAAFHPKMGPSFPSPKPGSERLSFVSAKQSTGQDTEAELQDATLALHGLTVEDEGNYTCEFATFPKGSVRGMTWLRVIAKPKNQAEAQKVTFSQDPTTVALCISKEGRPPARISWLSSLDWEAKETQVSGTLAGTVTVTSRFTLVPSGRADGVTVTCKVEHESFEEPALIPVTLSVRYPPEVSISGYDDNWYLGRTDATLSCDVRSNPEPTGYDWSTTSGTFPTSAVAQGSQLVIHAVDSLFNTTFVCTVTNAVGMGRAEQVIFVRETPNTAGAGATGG

A word on the Kd: it is the constant that tells how readily two partners part at equilibrium. With CD96 (from UniProt P40200), the Kd in the assay with PVR (Homo sapiens) [1] was 10200 nM.
Regarding TIGIT (from UniProt Q495A1), the equilibrium dissociation constant (Kd) is 3200 nM with PVR (Homo sapiens) [2] and 5800 nM with nectin-2 (Homo sapiens).

B1: TIGIT-His eukaryotic protein, Q495A1 22-244 (receptor)
chain: MMTGTIETTGNISAEKGGSIILQCHLSSTTAQVTQVNWEQQDQLLAICNADLGWHISPSFKDRVAPGPGLGLTLQSLTVNDTGEYFCIYHTYPDGTYTGRIFLEVLESSVAEHGARFQIP
modifications: here or on the partner: expressed in eukaryotic cells (glycosylated); His tag omitted; construct limits not given, so the mature extracellular domain (UniProt topology) is used by convention
The molecule B1 returned a Kd in assay [3] of 1150 nM.

B2: TIGIT-His eukaryotic protein (receptor)
chain: B1 chain
modifications: expressed in eukaryotic cells (glycosylated); His tag omitted; construct limits not given, so the mature extracellular domain (UniProt topology) is used by convention
B2: the Kd stood at 549 nM in assay [4], 16 nM in assay [5], 328 nM in assay [6] and 58 nM in assay [7].
